Molecular target: T1, elongated peptide GPPGPPGRLVD (human)
T1 construct: The range follows from the stated cleavage site V1709-D1710 and the peptide length
T1 peptide: GPPGPPGRLVD
Test: competitive ELISA on biotin-… coated streptavidin plates
Experimental: A competitive ELISA using the monoclonal antibody raised against C7 was performed using the following procedure:
Streptavidin-coated plates were coated with 100 μL/well of 2.5 ng/mL biotin-labeled peptide (Biotin-[…], SEQ ID NO: 10) diluted in assay buffer (50 mM TBS-BTB, 2 g/L NaCl, pH 8.0) and incubated at 20° C., 300 rpm shaking for 30 minutes. Plates were washed five times in washing buffer ([…] TRIS, 50 mM NaCl, pH 7.2). Sample or standard peptide (20 μL) was added in double determinations and followed immediately by addition of 100 μL/well of 200 ng/mL HRP-labeled monoclonal antibody diluted in assay buffer and plates were incubated at 20° C., 300 rpm shaking for 3 hours. The standard peptide was a synthetic peptide ([…], SEQ ID NO: 1) with a starting concentration of 125 ng/ml and diluted 2-fold to create an 11 points calibration curve (FIG. 1). After incubation, plates were washed five times in washing buffer. A volume of 100 μL 3,3′, 5,5′-tetramethylbenzidine (TMB) was added and incubated for 15 min at 20° C. in the dark. To stop the enzyme reaction of TMB, […] 0.1% sulphuric acid was added and the absorbance was measured at 450 nm with 650 nm as the reference using an ELISA reader. A calibration curve was plotted using a 4-parametric mathematical fit model. […] All samples were measured within the range of the assay. […]

- binding result: no binding
B1: monoclonal antibody raised against the C-terminal neo-epitope amino acid sequence …-COOH (C7) (antibody, mouse IgG1, kappa, V domains shown)
VH: EVQLQQSGPELVKPGASVKISCKTSGYTFIENTMNWVKQSHGKSLEWIGGINPKIGGSIYNQKFQDKATLTVDKSSSTAYMELRSLTSDDSAVYYCARGIYDEGWHFDVWGAGTTVTVSS
VL: DIVMTQAAFSNPVTLGTSASISCRSSQSLLYSNGITYLYWYLQKPGQSPQLLIYQMSNLASGVPDRFSSSGSGTDFTLRISRVEAEDVGVYYCAQNLELPWTFGGGTKLEIKR
notes: also called monoclonal antibody raised against C7; HRP-labeled monoclonal antibody

Source: patent publication US20250012810A1 (NORDIC BIOSCIENCE A S, published 2025)
